Target: mucosa-associated lymphoid tissue lymphoma translocation protein 1 (UniProt Q9UDY8)
Experiment: enzyme inhibition assay, 100 nM MALT1

mucosa-associated lymphoid tissue lymphoma translocation protein 1, sequence (Q9UDY8 340-789): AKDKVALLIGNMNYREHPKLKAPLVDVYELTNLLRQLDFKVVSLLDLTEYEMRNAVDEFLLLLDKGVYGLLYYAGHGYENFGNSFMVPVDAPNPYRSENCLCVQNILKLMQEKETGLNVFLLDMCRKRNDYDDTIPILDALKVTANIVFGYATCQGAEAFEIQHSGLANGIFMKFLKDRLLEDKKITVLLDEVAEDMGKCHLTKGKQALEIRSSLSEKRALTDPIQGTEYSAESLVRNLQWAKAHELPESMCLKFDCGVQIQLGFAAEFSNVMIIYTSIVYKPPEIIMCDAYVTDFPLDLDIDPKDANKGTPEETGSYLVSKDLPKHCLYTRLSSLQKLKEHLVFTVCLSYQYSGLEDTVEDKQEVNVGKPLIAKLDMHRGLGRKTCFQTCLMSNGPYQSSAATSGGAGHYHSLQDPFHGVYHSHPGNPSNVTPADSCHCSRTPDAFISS

| Ki | Substance |
| --- | --- |
| 27 nM | 2-Chlorobenzyl ((S)-1-((S)-2-(((S)-1-fluoro-6-guanidino-2-oxohexan-3-yl)carbamoyl)pyrrolidin-1-yl)-3-methyl-1-oxobutan-2-yl)carbamate (peptide) |
| 22 nM | 3-Chlorobenzyl ((S)-1-((S)-2-(((S)-1-fluoro-6-guanidino-2-oxohexan-3-yl)carbamoyl)pyrrolidin-1-yl)-3-methyl-1-oxobutan-2-yl)carbamate (peptide) |
| 38 nM | 4-Bromo-N-((S)-1-(((S)-1-(((S)-1-fluoro-6-guanidino-2-oxohexan-3-yl)amino)-1-oxopropan-2-yl)amino)-3-methyl-1-oxobutan-2-yl)benzamide (peptide) |
| 46 nM | 4-Bromo-N-((S)-1-cyclohexyl-2-(((S)-1-(((S)-1-fluoro-6-guanidino-2-oxohexan-3-yl)amino)-3-hydroxy-1-oxopropan-2-yl)amino)-2-oxoethyl)benzamide (peptide) |
| 32 nM | 4-Chlorobenzyl ((S)-1-((S)-2-(((S)-1-fluoro-6-guanidino-2-oxohexan-3-yl)carbamoyl)pyrrolidin-l-yl)-3-methyl-1-oxobutan-2-yl)carbamate (peptide) |
| 64 nM | 4-bromo-N-((S)-1-(((S)-1-(((S)-1-fluoro-6-guanidino-2-oxohexan-3-yl)amino)-3-hydroxy-1-oxopropan-2-yl)amino)-3-methyl-1-oxobutan-2-yl)benzamide (peptide) |
| 28 nM | (2S,4R)-1-((4-Bromobenzoyl)-L-valyl)-4-cyano-N-((S)-1-fluoro-6-guanidino-2-oxohexan-3-yl)pyrrolidine-2-carboxamide (peptide) |
| 50 nM | (2S,4R)-1-((4-Bromobenzoyl)-L-valyl)-N-((S)-1-fluoro-6-guanidino-2-oxohexan-3-yl)-4-hydroxypyrrolidine-2-carboxamide (peptide) |
| 34 nM | (2S,4R)-1-((S)-2-(4-Bromobenzamido)-2-cyclohexylacetyl)-N-((S)-1-fluoro-6-guanidino-2-oxohexan-3-yl)-4-hydroxypyrrolidine-2-carboxamide (peptide) |
| 102 nM | (S)-1-((1-naphthoyl)-L-valyl)-N-((S)-1-fluoro-6-guanidino-2-oxohexan-3-yl)pyrrolidine-2-carboxamide (peptide) |
| 46 nM | (S)-1-((2-(3-Bromophenyl)acetyl)-L-valyl)-N-((S)-1-fluoro-6-guanidino-2-oxohexan-3-yl)pyrrolidine-2-carboxamide (peptide) |
| 105 nM | (S)-1-((2-Bromobenzoyl)-L-valyl)-N-((S)-1-fluoro-6-guanidino-2-oxohexan-3-yl)pyrrolidine-2-carboxamide (peptide) |
| 47 nM | (S)-1-((2-naphthoyl)-L-valyl)-N-((S)-1-fluoro-6-guanidino-2-oxohexan-3-yl)pyrrolidine-2-carboxamide (peptide) |
| 41 nM | (S)-1-((3-Bromobenzoyl)-L-valyl)-N-((S)-1-fluoro-6-guanidino-2-oxohexan-3-yl)pyrrolidine-2-carboxamide (peptide) |
| 54 nM | (S)-1-((3-acetamidobenzoyl)-L-valyl)-N-((S)-1-fluoro-6-guanidino-2-oxohexan-3-yl)pyrrolidine-2-carboxamide (peptide) |
| 39 nM | (S)-1-((3-cyanobenzoyl)-L-valyl)-N-((S)-1-fluoro-6-guanidino-2-oxohexan-3-yl)pyrrolidine-2-carboxamide (peptide) |
| 45 nM | (S)-1-((4-(tert-Butyl)benzoyl)-L-valyl)-N-((S)-1-fluoro-6-guanidino-2-oxohexan-3-yl)pyrrolidine-2-carboxamide (peptide) |
| 71 nM | (S)-1-((4-Bromo-2-fluorobenzoyl)-L-valyl)-N-((S)-1-fluoro-6-guanidino-2-oxohexan-3-yl)pyrrolidine-2-carboxamide (peptide) |
| 40 nM | (S)-1-((4-Bromo-2-methylbenzoyl)-L-valyl)-N-((S)-1-fluoro-6-guanidino-2-oxohexan-3-yl)pyrrolidine-2-carboxamide (peptide) |
| 182 nM | (S)-1-((4-Bromobenzoyl)-L-leucyl)-N-((S)-1-fluoro-6-guanidino-2-oxohexan-3-yl)pyrrolidine-2-carboxamide (peptide) |
| 118 nM | (S)-1-((4-Bromobenzoyl)-L-valyl)-N-((S)-1-fluoro-6-guanidino-2-oxohexan-3-yl)azetidine-2-carboxamide (peptide) |
| 10 nM | (S)-1-((4-Bromobenzoyl)-L-valyl)-N-((S)-1-fluoro-6-guanidino-2-oxohexan-3-yl)pyrrolidine-2-carboxamide (peptide) |
| 60 nM | (S)-1-((4-Cyanobenzoyl)-L-valyl)-N-((S)-1-fluoro-6-guanidino-2-oxohexan-3-yl)pyrrolidine-2-carboxamide (peptide) |
| 13 nM | (S)-1-((4-bromo-3-cyanobenzoyl)-L-valyl)-N-((S)-1-fluoro-6-guanidino-2-oxohexan-3-yl)pyrrolidine-2-carboxamide (peptide) |
| 78 nM | (S)-1-((4-bromo-3-fluorobenzoyl)-L-valyl)-N-((S)-1-fluoro-6-guanidino-2-oxohexan-3-yl)pyrrolidine-2-carboxamide (peptide) |

| Ki | Substance |
| --- | --- |
| 79 nM | (S)-1-((4-bromobenzoyl)-L-valyl)-N-((S)-1-fluoro-6-guanidino-2-oxohexan-3-yl)piperidine-2-carboxamide (peptide) |
| 24 nM | (S)-1-((4-chloro-3-cyanobenzoyl)-L-valyl)-N-((S)-1-fluoro-6-guanidino-2-oxohexan-3-yl)pyrrolidine-2-carboxamide (peptide) |
| 67 nM | (S)-1-((4-chlorobenzoyl)-L-valyl)-N-((S)-1-fluoro-6-guanidino-2-oxohexan-3-yl)pyrrolidine-2-carboxamide (peptide) |
| 24 nM | (S)-1-(((2-Chlorophenyl)carbamoyl)-L-valyl)-N-((S)-1-fluoro-6-guanidino-2-oxohexan-3-yl)pyrrolidine-2-carboxamide (peptide) |
| 557 nM | (S)-1-(((3-Chlorophenyl)carbamoyl)-L-valyl)-N-((R)-1-fluoro-6-guanidino-2-oxohexan-3-yl)pyrrolidine-2-carboxamide (peptide) |
| 27 nM | (S)-1-(((3-Chlorophenyl)carbamoyl)-L-valyl)-N-((S)-1-fluoro-6-guanidino-2-oxohexan-3-yl)pyrrolidine-2-carboxamide (peptide) |
| 66 nM | (S)-1-(((4-Bromophenyl)sulfonyl)-L-valyl)-N-((S)-1-fluoro-6-guanidino-2-oxohexan-3-yl)pyrrolidine-2-carboxamide (peptide) |
| 62 nM | (S)-1-(((4-Chlorophenyl)carbamoyl)-L-valyl)-N-((S)-1-fluoro-6-guanidino-2-oxohexan-3-yl)pyrrolidine-2-carboxamide (peptide) |
| 56 nM | (S)-1-((Cyclohexanecarbonyl)-L-valyl)-N-((S)-1-fluoro-6-guanidino-2-oxohexan-3-yl)pyrrolidine-2-carboxamide (peptide) |
| 448 nM | (S)-1-((S)-2-(4-Bromobenzamido)-3-(4-(trifluoromethyl)phenyl)propanoyl)-N-((S)-1-fluoro-6-guanidino-2-oxohexan-3-yl)pyrrolidine-2-carboxamide (peptide) |
| 122 nM | (S)-1-((S)-2-(4-Bromobenzamido)-3-cyclohexylpropanoyl)-N-((S)-1-fluoro-6-guanidino-2-oxohexan-3-yl)pyrrolidine-2-carboxamide (peptide) |
| 45 nM | (S)-1-((S)-2-(4-bromobenzamido)-2-cyclohexylacetyl)-N-((S)-1-fluoro-6-guanidino-2-oxohexan-3-yl)pyrrolidine-2-carboxamide (peptide) |
| 30 nM | (S)-1-(([1,1′-biphenyl]-4-carbonyl)-L-valyl)-N-((S)-1-fluoro-6-guanidino-2-oxohexan-3-yl)pyrrolidine-2-carboxamide (peptide) |
| 40 nM | (S)-1-(Benzoyl-L-valyl)-N-((S)-1-fluoro-6-guanidino-2-oxohexan-3-yl)pyrrolidine-2-carboxamide (peptide) |
| 36 nM | (S)-1-(cinnamoyl-L-valyl)-N-((S)-1-fluoro-6-guanidino-2-oxohexan-3-yl)pyrrolidine-2-carboxamide (peptide) |
| 20 nM | (S)-3-((4-Bromobenzoyl)-L-valyl)-N-((S)-1-fluoro-6-guanidino-2-oxohexan-3-yl)oxazolidine-4-carboxamide (peptide) |
| 70 nM | (S)-4-((4-Bromobenzoyl)-L-valyl)-N-((S)-1-fluoro-6-guanidino-2-oxohexan-3-yl)morpholine-3-carboxamide (peptide) |
| 346 nM | (S)-N-((R)-1-Fluoro-6-guanidino-2-oxohexan-3-yl)-1-((4-fluorobenzoyl)-L-valyl)pyrrolidine-2-carboxamide (peptide) |
| 109 nM | (S)-N-((S)-1-Fluoro-6-guanidino-2-oxohexan-3-yl)-1-((2-methoxybenzoyl)-L-valyl)pyrrolidine-2-carboxamide (peptide) |
| 42 nM | (S)-N-((S)-1-Fluoro-6-guanidino-2-oxohexan-3-yl)-1-((2-phenylacetyl)-L-valyl)pyrrolidine-2-carboxamide (peptide) |
| 75 nM | (S)-N-((S)-1-Fluoro-6-guanidino-2-oxohexan-3-yl)-1-((3-methoxybenzoyl)-L-valyl)pyrrolidine-2-carboxamide (peptide) |
| 43 nM | (S)-N-((S)-1-Fluoro-6-guanidino-2-oxohexan-3-yl)-1-((3-phenylpropanoyl)-L-valyl)pyrrolidine-2-carboxamide (peptide) |
| 13 nM | (S)-N-((S)-1-Fluoro-6-guanidino-2-oxohexan-3-yl)-1-((4-fluorobenzoyl)-L-valyl)pyrrolidine-2-carboxamide (peptide) |
| 22 nM | (S)-N-((S)-1-Fluoro-6-guanidino-2-oxohexan-3-yl)-1-((4-isopropylbenzoyl)-L-valyl)pyrrolidine-2-carboxamide (peptide) |
| 50 nM | (S)-N-((S)-1-Fluoro-6-guanidino-2-oxohexan-3-yl)-1-((4-methoxybenzoyl)-L-valyl)pyrrolidine-2-carboxamide (peptide) |
